Test results published in patent publication US12018084B2, “Anti-CXCR2 antibodies and uses thereof” (Cephalon LLC, priority 2018, dated 2024).
Residue numbers refer to the chain shown, from its start. Names and notes keep the numbering of the source.

How the values were obtained:
Human CXCR2 [1] = target: T1, Human CXCR2 (Homo sapiens, UniProt P25025); assay: Tango CXCR2-bla U2OS cell-based β-arrestin recruitment assay; set-up: The beta-arrestin/TEV protease fusion and the beta-lactamase reporter are separate parts of the cell line; details: CXCL1 or CXCL8 as agonist
T1 sequence (P25025 1-360): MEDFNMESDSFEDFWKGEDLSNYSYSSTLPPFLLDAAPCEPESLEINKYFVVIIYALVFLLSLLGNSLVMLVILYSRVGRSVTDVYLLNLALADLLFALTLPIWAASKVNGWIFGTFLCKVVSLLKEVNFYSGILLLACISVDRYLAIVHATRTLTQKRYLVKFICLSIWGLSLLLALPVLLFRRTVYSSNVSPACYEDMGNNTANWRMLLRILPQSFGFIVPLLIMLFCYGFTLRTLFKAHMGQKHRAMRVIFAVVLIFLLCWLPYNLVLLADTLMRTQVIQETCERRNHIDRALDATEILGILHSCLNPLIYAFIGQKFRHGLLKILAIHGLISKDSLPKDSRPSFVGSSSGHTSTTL
Source text: Cells were thawed, propagated, cultured and frozen according to the manufacturer's directions.
Preparation of Tango™ CXCR2-bla U2OS cells for use in cell-based assays: The manufacturer's protocol was altered to make use of 96-well plates instead of 384-well plates. Briefly, dividing cells were harvested one day prior to use. Cells were harvested and resuspended in assay medium (100% FreeStyle™ Expression Medium; Life Technologies; Cat #12338-018) at a viable cell density of 312,500 cells/mL. 128 μL of cell suspension was added per well in 96-well black-walled, clear bottom tissue culture-treated plates. Cells were incubated for 16-20 hrs at 37° C. in an atmosphere of 5% CO2 prior to use in assays.
Tango™ assay procedure: Assays were set up and run as described in the manufacturer's protocol. For antagonist assays, agonists were used at concentrations in the EC50-EC80 range. Assays were read using a FlexStation® 3 (Molecular Devices) fluorescence plate reader configured with the parameters given in Table 4. The blue/green emission ratio for each well was calculated by dividing the blue emission values by the green emission values. All inhibition curves were fitted using a four-parameter dose-response using GraphPad Prism™ (Version 7.01).
The Human CXCR2 Tango™ cell line was used to assess the ability of antibody BKO-4A8-101c to inhibit β-arrestin recruitment to agonist-activated CXCR2. All human ELR+ chemokine CXCR2 ligands were tested in antagonist dose response assays using calculated EC50 values of agonist.
The commercially available reporter cell line Tango™ CXCR2-bla U2OS (ThermoFisher Scientific) was used to assess the ability of the anti-CXCR2 antibodies to inhibit β-arrestin recruitment to agonist-activated CXCR2. Agonists were provided at their assay EC50 concentration for antagonist assays.

Murine CXCR2 = target: T2, Murine CXCR2 (Mus musculus, UniProt P35343); assay: cELISA of hybridoma supernatants on cells transfected with murine CXCR2; assay type: binding; details: hybridoma supernatant; fluorescence units relative to positive control (100%)
T2 construct: expressed in transfected cells
T2 sequence (P35343 1-359): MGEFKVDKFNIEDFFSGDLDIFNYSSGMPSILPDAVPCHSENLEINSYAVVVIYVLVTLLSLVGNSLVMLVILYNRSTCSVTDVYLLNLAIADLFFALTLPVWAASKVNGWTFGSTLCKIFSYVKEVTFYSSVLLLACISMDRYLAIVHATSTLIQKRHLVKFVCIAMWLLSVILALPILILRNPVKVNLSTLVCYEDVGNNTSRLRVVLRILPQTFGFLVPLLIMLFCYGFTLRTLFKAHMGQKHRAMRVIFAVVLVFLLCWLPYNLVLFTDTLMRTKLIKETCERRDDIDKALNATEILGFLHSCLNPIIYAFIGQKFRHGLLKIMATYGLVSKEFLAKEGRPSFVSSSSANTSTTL

Human CXCR2 [2] = target: T1, Human CXCR2; assay: cELISA of hybridoma supernatants on cells transfected with human CXCR2; assay type: binding; set-up: host or cells: Expi293F cells, vector pTT5; details: hybridoma supernatant; fluorescence units relative to positive control (100%)
Procedure: To generate hybridomas which produced monoclonal antibodies to human CXCR2, splenocytes and/or lymph node cells from animals with the highest anti-CXCR2 titres were isolated and fused to mouse myeloma cells (ATCC, CRL-1580). Cells were plated at approximately 1×10^5 cells/mL in flat bottom microtiter plates, followed by a two week incubation in selective medium (10% FCS and 1×HAT (Sigma)). Hybridomas were expanded by serial passage through four media changes in 96-well plates (96-well stages 1 to 4), then, where required, expanded into T25 and T75 flasks. […] Bound antibodies were detected using a goat anti-rat IgG-HRP (Southern Biotech, #3030-05) secondary antibody.
A panel of hybridomas was generated using lymph nodes and spleen cells from the transgenic rats engineered to express human variable region sequences. A cellular ELISA (cELISA) was used to detect human CXCR2 binding activity in supernatants taken during the expansion process for the hybridomas (Table 5). Hybridomas that retained expression of antibodies that bound CXCR2 after several passages were selected for DNA sequencing.

B1: 103c: VH SEQ ID NO: 163, VL SEQ ID NO: 110 (antibody, V domains shown)
VH: EVQLLESGGGLVQPGGSLRLSCAASGFTFSSSTQSWVRQPPGKGLEWVSAISGSGGSTYYADSVKGRFTISRDNSKNTLYLQMNSLRAEDTAVYYCAIQMGYWGQGILVTVSS
VL: QSALTQPPSASGSPGQSVTISCIGTSSDVGGYNYVSWYQQHPGKAPKLMIYEVSKRPSGVPDRFSGSKSGNTASLTVSGLQAEDEADYYCSSYAGSNNFGVFGGGTKLTVL
modifications: 4A8 VH Variant 103 M34Q_A40P_R53S_R55G_N56S_ R75K; 4A8 VL variant c D41G_N52S_N94S
potency compared to the parental antibody (Human CXCR2 [1]): reduced potency

B2: BKO-1D1: VH SEQ ID NO: 5, VL SEQ ID NO: 6 (antibody, V domains shown)
VH: B1 VH with G26K, F27L, S30K, S31N, T33A, Q34M, P40A, S52T, S57R, V93I
VL: B1 VL with I23T, S54N, D62A
modifications: BKO_1D1_VH; BKO_1D1_VL
Murine CXCR2 % Positive (Murine CXCR2): 7%
Human CXCR2 % Positive (Human CXCR2 [2]): 67%

B3: 104c: VH SEQ ID NO: 164, VL SEQ ID NO: 110 (antibody, V domains shown)
VH: B1 VH with M100K
VL: B1 VL
modifications: 4A8 VH Variant 104 M34Q_A40P_R53S_R55G_N56S_ R75K_M96K; 4A8 VL variant c D41G_N52S_N94S
potency compared to the parental antibody (Human CXCR2 [1]): reduced potency

B4: BKO-2D8: VH SEQ ID NO: 9, VL SEQ ID NO: 10 (antibody, V domains shown)
VH: B1 VH with F27Y, S30T, Q34M, P40A, S49T, S54R, S57R, M100L, Y102N
VL: B1 VL with I23T, V29I, M49V, S54N, K55M, D62A, S96N, N97D, T109S
modifications: BKO_2D8_VH; BKO_2D8_VL
Murine CXCR2 % Positive (Murine CXCR2): 7%
Human CXCR2 % Positive (Human CXCR2 [2]): 100%

B5: BKO-9A8: VH SEQ ID NO: 47, VL SEQ ID NO: 48 (antibody, V domains shown)
VH: B1 VH with P14T, S32N, Q34M, P40A, S57R, A61V, N84H, M100L, Y102S
VL: B1 VL with I23T, G31A, S54T, S96N
modifications: BKO_9A8_H3_F03_VH; BKO_9A8_L1_H02_VL
Murine CXCR2 % Positive (Murine CXCR2): 8%
Human CXCR2 % Positive (Human CXCR2 [2]): 124%

B6: 105c: VH SEQ ID NO: 165, VL SEQ ID NO: 110 (antibody, V domains shown)
VH: B1 VH with M100A
VL: B1 VL
modifications: 4A8 VH Variant 105 M34Q_A40P_R53S_R55G_N56S_ R75K_M96A; 4A8 VL variant c D41G_N52S_N94S
potency compared to the parental antibody (Human CXCR2 [1]): reduced potency

B7: BKO-3F4: VH SEQ ID NO: 15, VL SEQ ID NO: 16 (antibody, V domains shown)
VH: B1 VH with F27L, S32Y, T33A, Q34M, P40A, S57K, T58I, M100V, I107T
VL: B1 VL with I20M, I23T, S36T, D62A, S96P
modifications: BKO_3F4_VH; BKO_3F4_L11_A11_VL
Murine CXCR2 % Positive (Murine CXCR2): 42%
Human CXCR2 % Positive (Human CXCR2 [2]): 86%

B8: BKO-1B10: VH SEQ ID NO: 3, VL SEQ ID NO: 4 (antibody, V domains shown)
VH: QLQLQESGPGLVKPSETLSLTCTVSGGSIRTSSYYWGWIRQPPGKGLEYIGSIYYSGTTYYNPSLKSRVTMSVDTSKNQFSLKLSSVTAADTAVYYCARHGRVREVPPFDYWGQGTLVTVSS
VL: SSELTQDPAVSVALGQTVRITCQGDSLRYYYASWYQQKPGQAPVLVIYDENSRPSGIPDRFSGSSSGNTASLRITGTQAEDEADYYCNSRDTSGNHWAFGGGTKLTVL
modifications: BKO_1B10_VH; BKO_1B10_VL
Murine CXCR2 % Positive (Murine CXCR2): 4%
Human CXCR2 % Positive (Human CXCR2 [2]): 75%

B9: BKO-10G10: VH SEQ ID NO: 51, VL SEQ ID NO: 52 (antibody, V domains shown)
VH: QLQLQESGPGLVKPSETLSLTCTVSGGSIRRSSYYWGWIRQPPGKGLEWIGSFYNSGNTYYKPSLKSRVAISVDTPKNQFSLKLSSVTAADTAVYYCARGYSSGGFDPWGQGTLVTVSS
VL: QSALTQPASVSGSPGQSITISCTGTSSDVGGYNYVSWCQQHPGKAPKIMIFDVSNRPSGVSNRFSGSKSGNTASLTISGLQAEDEADYYCSSYTSSSTWVFGGGTRLTVL
modifications: BKO_10G10_VH; BKO_10G10_VL
Murine CXCR2 % Positive (Murine CXCR2): 4%
Human CXCR2 % Positive (Human CXCR2 [2]): 89%

B10: BKO-4F10: VH SEQ ID NO: 19, VL SEQ ID NO: 20 (antibody, V domains shown)
VH: QVQLVQSGAEVKKPGASVKVSCKASGYTFTGYYIHWVRQAPGQGLEWMGRFNPNNGGTNYAQRFQGRVTMTRDTSISTAYMELSRLRSDDTAVYYCARGPTIRLWFDNWFDSWGQGTLVTVSS
VL: B9 VL with C38Y, I48L, F51Y, V60I, R106K
modifications: BKO_4F10_VH; BKO_4F10_VL
Murine CXCR2 % Positive (Murine CXCR2): 7%
Human CXCR2 % Positive (Human CXCR2 [2]): 118%

B11: BKO-8H10: VH SEQ ID NO: 43, VL SEQ ID NO: 44 (antibody, V domains shown)
VH: QVQLVQSGAEVKKPGASVKVSCKASGYTFTGYYIHWVRQAPGQGLEWMGRIKPDSGGTNYAQKFQGRVTMTRDTSITTAYMELSRLRSDDTAVYYCARGGSGWDYWGQGTLVTVSS
VL: QSALTQPPSASGSPGQSVTISFTGTSRDVGDYNYVSWYQQHPGKAPKLMIYEVNKRPSGVPDRFSGSKSGNTASLTVSGLQAEDEADYYCSSYAGSNTYVFGTGTKVTVL
modifications: BKO_8H10_VH; BKO_8H10_VL
Murine CXCR2 % Positive (Murine CXCR2): 8%
Human CXCR2 % Positive (Human CXCR2 [2]): 81%
